{"source": "patent US20160083712", "key": {"[1]": {"system": "CSN6, soluble MPN domain construct of Example 2", "sequence (chain, as listed by the source)": "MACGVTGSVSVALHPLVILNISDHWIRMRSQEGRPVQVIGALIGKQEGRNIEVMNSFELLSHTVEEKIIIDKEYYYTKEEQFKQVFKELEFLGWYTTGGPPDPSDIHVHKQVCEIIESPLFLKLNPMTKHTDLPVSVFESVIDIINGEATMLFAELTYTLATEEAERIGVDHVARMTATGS"}, "Nedd8-AMC": {"molecular_target": "Nedd8-AMC (UniProt Q15843)", "sequence (Q15843 whole entry, looked up)": "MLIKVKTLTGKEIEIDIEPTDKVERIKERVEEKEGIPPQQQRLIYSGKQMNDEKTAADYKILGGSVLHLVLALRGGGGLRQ"}}}
{"substance": "CSN5 R106T, activatory mutant form, construct of Example 2", "values": [{"measurement": "CSN5 isopeptidase activity (substrates LRGG-AMC, Nedd8-AMC, Nedd8-cullin 1)", "setting": "[1]", "value": "this effect is consistently more marked in the context of the activatory mutant form of CSN5, CSN5 R106T than the WT form"}]}
{"substance": "CSN5 WT, soluble MPN domain construct of Example 2", "values": [{"measurement": "CSN5 isopeptidase activity (substrates LRGG-AMC, Nedd8-AMC, Nedd8-cullin 1)", "setting": "[1]", "value": "CSN6 is able to significantly enhance CSN5 isopeptidase activity"}]}
{"substance": "CSN51-257 R106T (human CSN5 residues 1-257 with Arg106 substituted by threonine)", "values": [{"measurement": "isopeptidase activity (hydrolysis of Nedd8-AMC, fluorescence)", "setting": "Nedd8-AMC", "value": "the R106T substitution is sufficient to restore constitutive isopeptidase activity against two isopeptidase substrates, LRGG-AMC and Nedd8-AMC"}]}
{"substance": "CSN51-257 wild type (human CSN5 residues 1-257, GST tag cleaved off)", "values": [{"measurement": "isopeptidase activity (hydrolysis of Nedd8-AMC, fluorescence)", "setting": "Nedd8-AMC", "value": "the CSN51-257 WT form is void of isopeptidase activity"}]}
{"substance": "GST-CSN51-257 R106T (GST-tagged human CSN5 residues 1-257 with Arg106 substituted by threonine)", "values": [{"measurement": "isopeptidase activity (hydrolysis of LRGG-AMC, fluorescence)", "setting": "LRGG-AMC", "value": "the R106T substitution is sufficient to restore constitutive isopeptidase activity against two isopeptidase substrates, LRGG-AMC and Nedd8-AMC"}]}
{"substance": "GST-CSN51-257 wild type (GST-tagged human CSN5 residues 1-257)", "values": [{"measurement": "isopeptidase activity (hydrolysis of LRGG-AMC, fluorescence)", "setting": "LRGG-AMC", "value": "the CSN51-257 WT form is void of isopeptidase activity"}]}
